For 54 molecules, normalised SPOT signal, Boehringer light units (BLU); mean over the file's lines of this peptide results are on record in publication PMC314469, “Protein Interaction Networks by Proteome Peptide Scanning” (PLoS Biology, 2004).

T1: Abp1 SH3 (ABP1_YEAST), P15891
T1 chain: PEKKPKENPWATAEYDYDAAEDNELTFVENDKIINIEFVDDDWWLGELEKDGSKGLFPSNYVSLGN

In this experiment the target is T1, Abp1 SH3 (ABP1_YEAST), P15891. The experiment is described as follows: SPOT array.
With SSTIKRYPSRYKP [YFR019W 125-137], the normalised SPOT signal, Boehringer light units (BLU); mean over the file's lines of this peptide amounted to 238. The value for THTNLAPPPTMKP [YHR102W 753-765] was 136; that for TDMVLIPAGVPRKP [YKL085W 88-101] was 122; that for STFSDHEPQHTKP [YBL054W 203-215] was 96.8. Under STSSENRLRTPLKP [YGL021W 216-229] stands 76.6. Under TKFDDEPPLADKP [YML109W 280-292] stands 133; under STIPDNHPVLNKP [YAL043C 192-204], 117.

In the case of TEKHELIIPTPSKP [YCL027W 383-396], the normalised SPOT signal, Boehringer light units (BLU); mean over the file's lines of this peptide was found to be 57. The value for SVLAPYLPFLMKP [YHR099W 870-882] was 8.6.

Regarding TDSGRNGPRSGKP [YNL251C 479-491], the normalised SPOT signal, Boehringer light units (BLU); mean over the file's lines of this peptide came out at 36.5. TKKAKIIFTAPTRP [YIR002C 128-141]: the normalised SPOT signal, Boehringer light units (BLU); mean over the file's lines of this peptide worked out at 87.4. In turn, SVASLKRVIVPDKP [YNL020C 51-64] had a normalised SPOT signal, Boehringer light units (BLU); mean over the file's lines of this peptide of 388. The value for TDVTFSYPGAQKP [YPL226W 815-827] was 108. Consider STFLYRFPINGRP [YER019W 144-156], for which the normalised SPOT signal, Boehringer light units (BLU); mean over the file's lines of this peptide amounted to 89.3. TIADTLQPGLPHKP [YJL045W 457-470] yielded a normalised SPOT signal, Boehringer light units (BLU); mean over the file's lines of this peptide of 127. Under TFEEFQSPIYRKP [YIL110W 72-84] stands 98.3. The value for SSTLKSNSSLPPKP [YGR178C 412-425] was 69. Turning to TSGPHGSPDFFKP [YBR208C 1266-1278], the normalised SPOT signal, Boehringer light units (BLU); mean over the file's lines of this peptide is 64.2. Under TKSEYTNAELPAKP [YMR011W 36-49] stands 67.7; under SVRVQGEPLDPKRP [YGL027C 137-150], 80; under TFTGLIGMNDPPRP [YGL167C 571-584], 83.7. The value for TGVSIKNPRPSRP [YPR096C 5-17] was 1030; that for SVQNAKFPRASKP [YPL160W 891-903] was 240. The value for THALGAAIDPPRRP [YCL048W 21-34] was 53.7.

TIWNTIIKFDPGRP [YKL178C 248-261]: the normalised SPOT signal, Boehringer light units (BLU); mean over the file's lines of this peptide was found to be 180. Consider SVQQSQILIQPERP [YCR033W 957-970], for which the normalised SPOT signal, Boehringer light units (BLU); mean over the file's lines of this peptide worked out at 73. Under TKAKKEKPKPPKP [YMR044W 280-292] stands 1330; under STSFSPSPLIRRP [YKL108W 250-262], 550.

As for SYPSAIQNVQPRKP [YFR022W 627-640], the normalised SPOT signal, Boehringer light units (BLU); mean over the file's lines of this peptide worked out at 105. The value for TDIHKEDPVDKKP [YML061C 94-106] was 200. The value for SSTKVPEPPSWKP [YIL156W 492-504] was 34.3. The value for STRLTLTKWDPSKP [YKL027W 380-393] was 209; that for SYILEELPIHLRP [YPL110C 407-419] was 140; that for TIKRKRAYSLPLRP [YKR098C 130-143] was 133.

The molecule TDELSKFPFIDKP [YKR086W 737-749] returned a normalised SPOT signal, Boehringer light units (BLU); mean over the file's lines of this peptide of 42.7. Under SYNINSDPVITRP [YPR022C 958-970] stands 90.3; under TSPHTENFQIPSKP [YBR058C 192-205], 66.6; under TDGNEEKPLLPTRP [YPR171W 199-212], 65.4. In turn, TAGHKLSVRVPTKP [YDL227C 82-95] had a normalised SPOT signal, Boehringer light units (BLU); mean over the file's lines of this peptide of 638. In turn, TFDVPASPQSKKP [YOL153C 56-68] came in with a normalised SPOT signal, Boehringer light units (BLU); mean over the file's lines of this peptide of 113. The value for SVVISKNPDFFKP [YOR160W 317-329] was 62.4; that for SYPGSTRITLPRRP [YBR122C 34-47] was 568; that for STKKPRPPVKSKP [YOR367W 152-164] was 67200.

In turn, STGGVKKPHRYKP [YBR010W 32-44] gave a normalised SPOT signal, Boehringer light units (BLU); mean over the file's lines of this peptide of 130. Under TSLSIVRPNDSKP [YMR185W 853-865] stands 54.1; under TEEEIKYLEEPYKP [YPL088W 324-337], 102; under SSYAHKRSELPTRP [YNL139C 1440-1453], 201. The value for STMVTYLPPSSKP [YKL020C 555-567] was 136; that for SSVSAHQPTQEKP [YGL008C 14-26] was 161. STRAKGIAFHPSRP [YDL145C 11-24] yielded a normalised SPOT signal, Boehringer light units (BLU); mean over the file's lines of this peptide of 119. The value for STKPEKPPVVKKP [YNL106C 1109-1121] was 13300; that for SVYSNYLPKGNRP [YMR167W 278-290] was 216. Under TAIRTVMPNLLKP [YOR118W 248-260] stands 109. The value for TKLSTHKASSPSRP [YHR102W 715-728] was 170.
